Legend:
[1] = molecular target: T1, FLAG-CD19-ECD-GGSG-NLuc-AcV5 (human); assay: NLuc assay: CAR-T cells incubated with CD19-GGSG-NLuc-AcV5 supernatant
T1 construct: the entry includes the signal peptide; also called CD19-GGSG-NLuc-AcV5; CD19-GGSG-NLuc fusion protein
T1 chain: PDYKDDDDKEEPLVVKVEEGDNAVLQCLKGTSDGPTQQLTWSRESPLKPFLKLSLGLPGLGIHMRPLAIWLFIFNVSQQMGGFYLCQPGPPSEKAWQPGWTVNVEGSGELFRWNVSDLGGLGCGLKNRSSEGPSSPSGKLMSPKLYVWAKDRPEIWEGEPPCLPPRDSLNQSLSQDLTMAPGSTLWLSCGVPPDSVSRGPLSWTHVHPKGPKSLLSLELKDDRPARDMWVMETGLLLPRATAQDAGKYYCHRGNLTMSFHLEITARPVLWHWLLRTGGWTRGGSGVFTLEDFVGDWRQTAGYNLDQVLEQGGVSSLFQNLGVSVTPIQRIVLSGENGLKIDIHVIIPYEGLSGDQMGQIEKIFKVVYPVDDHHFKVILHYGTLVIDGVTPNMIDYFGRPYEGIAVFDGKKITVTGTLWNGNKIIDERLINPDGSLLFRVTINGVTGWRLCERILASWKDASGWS

[2] = molecular target: T2, MPL-ECD-GGSG-Nluc-AcV5 (human); assay: NLuc assay: CAR-T cells incubated with MPL-GGSG-NLuc-AcV5 supernatant
T2 construct: the entry includes the native signal peptide; also called MPL-GGSG-NLuc-AcV5; MPL-GGSG-NLuc AcV5
T2 chain: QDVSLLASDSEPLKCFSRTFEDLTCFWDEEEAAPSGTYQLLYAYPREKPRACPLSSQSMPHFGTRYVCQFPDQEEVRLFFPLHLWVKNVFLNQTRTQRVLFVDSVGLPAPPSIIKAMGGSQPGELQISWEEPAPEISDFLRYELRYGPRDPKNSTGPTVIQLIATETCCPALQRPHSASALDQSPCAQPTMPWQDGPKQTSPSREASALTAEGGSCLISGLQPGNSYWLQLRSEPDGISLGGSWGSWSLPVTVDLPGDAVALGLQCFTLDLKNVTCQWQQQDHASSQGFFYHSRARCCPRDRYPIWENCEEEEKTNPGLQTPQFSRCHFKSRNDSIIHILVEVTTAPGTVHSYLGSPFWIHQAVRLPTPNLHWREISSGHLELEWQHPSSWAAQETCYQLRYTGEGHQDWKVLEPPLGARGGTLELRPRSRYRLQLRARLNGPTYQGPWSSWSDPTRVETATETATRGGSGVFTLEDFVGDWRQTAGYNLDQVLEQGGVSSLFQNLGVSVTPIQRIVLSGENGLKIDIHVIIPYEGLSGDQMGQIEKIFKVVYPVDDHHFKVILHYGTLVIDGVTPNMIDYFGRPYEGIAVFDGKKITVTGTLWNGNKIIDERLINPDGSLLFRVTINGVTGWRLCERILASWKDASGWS

[3] = molecular target: T1, FLAG-CD19-ECD-GGSG-NLuc-AcV5; assay: NLuc assay: CAR on Jurkat-NFAT-Luc cells incubated with FLAG-CD19-ECD-GGSG-NLuc-AcV5 supernatant
[4] = molecular target: T3, human MPL (thrombopoietin receptor) (human, UniProt P40238 26-635); assay: NLuc luminescence of scFv-NLuc fusion supernatant bound to washed cells
T3 construct: whole, on cells; also called c-MPL; c-Mpl
T3 sequence (looked up): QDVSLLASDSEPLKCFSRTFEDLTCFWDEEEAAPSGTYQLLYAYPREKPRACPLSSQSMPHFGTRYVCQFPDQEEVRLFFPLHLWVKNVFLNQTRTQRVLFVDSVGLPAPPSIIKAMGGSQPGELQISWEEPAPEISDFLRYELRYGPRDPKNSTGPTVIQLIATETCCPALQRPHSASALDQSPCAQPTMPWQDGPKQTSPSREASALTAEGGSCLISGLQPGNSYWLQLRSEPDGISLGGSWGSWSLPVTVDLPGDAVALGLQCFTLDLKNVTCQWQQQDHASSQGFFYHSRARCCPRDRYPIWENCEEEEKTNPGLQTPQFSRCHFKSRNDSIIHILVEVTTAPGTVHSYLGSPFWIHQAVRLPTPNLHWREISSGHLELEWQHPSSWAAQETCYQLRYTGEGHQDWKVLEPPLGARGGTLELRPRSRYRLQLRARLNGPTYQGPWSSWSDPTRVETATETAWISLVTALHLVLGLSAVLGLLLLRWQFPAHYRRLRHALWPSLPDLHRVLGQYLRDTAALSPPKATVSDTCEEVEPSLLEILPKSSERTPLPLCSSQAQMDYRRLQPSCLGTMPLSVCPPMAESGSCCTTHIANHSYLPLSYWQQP

B1: CD8SP-AB317-(vL-vH)-Myc-CD28z-T2A-PAC(031615-T04) (scFv)
chain: DIVLTQSPASLAVSLGQSVTISCRASESVEYYGTSLMQWYQQKPGQPPKLLIYGASNVESGVPARFSGSGSGTDFSLNIHPVEEDDIAMYFCQQSRKVPWTFGGGTKLEIKGGGGSGGGGSGGGGSEVKLVESGGGLVKPGGSRKLSCAASGFTFSSYTMSWVRQTPAKRLEWVATISSGSSTIYYADTVKGRFTISRDNAKNTLFLQMTSLRSEDTAMYYCARRWFLDCWGQGTTLTVSSTREQKLISEEDLKIEVMYPPPYLDNEKSNGTIIHVKGKHLCPSPLFPGPSKPFWVLVVVGGVLACYSLLVTVAFIIFWVRSKRSRLLHSDYMNMTPRRPGPTRKHYQPYAPPRDFAAYRSRVKFSRSADAPAYQQGQNQLYNELNLGRREEYDVLDKRRGRDPEMGGKPRRKNPQEGLYNELQKDKMAEAYSEIGMKGERRRGKGHDGLYQGLSTATKDTYDALHMQALPPRSSGSGEGRGSLLTCGDVEENPG
notes: CAR on cells; entry = whole encoded polyprotein incl; CD8 signal peptide and T2A-PAC
[1]
  binding result: no binding

B2: CD8SP-4C3-(vL-vH)-Myc-CD28z-T2A-Pac(031615-W05) (scFv)
chain: DIVMTQSPSSLTMSVGQKVTMSCKSSHSLLNSRNQKNYLAWFQQKPGQSPKLLVYFASTRESGVPDRFIGSGSGTDFTLTISNVQAEDLADYFCQQHYTTLPTFGGGTKLEIKGGGGSGGGGSGGGGSQIQLVQSGPDLKKPGETVKISCKASGYTFTNTGMNWVKQAPGKGLKWMGWINTYTGEPTYADDFKGRFTFSLETSASTAYLQINNLKNEDTATYFCTRWGYGSSLYYAMDYWGQGTSVTVSSTREQKLISEEDLKIEVMYPPPYLDNEKSNGTIIHVKGKHLCPSPLFPGPSKPFWVLVVVGGVLACYSLLVTVAFIIFWVRSKRSRLLHSDYMNMTPRRPGPTRKHYQPYAPPRDFAAYRSRVKFSRSADAPAYQQGQNQLYNELNLGRREEYDVLDKRRGRDPEMGGKPRRKNPQEGLYNELQKDKMAEAYSEIGMKGERRRGKGHDGLYQGLSTATKDTYDALHMQALPPRSSGSGEGRGSLLTCGDVEENPG
notes: also called control CAR 4C3
[2]
  binding result: no binding

B3: CD8SP-12E10-(vL-vH)-Myc-CD28z-T2A-PAC(031615-S03) (scFv)
chain: DQVQLQQSGPGLVKPSETLSLTCTVSGDSISSYYWSWIRQPPGKGLEWIGYIYYSGSTNYNPSLKSRVTISVDTSKSQFSLKLSSVTAADTAVYYCARGRYFDVWGRGTMVTSSGGGGSGGGGSGGGGSSSYVLTQPPSVSGSPGQSITISCTGTSSDVGGYNYVSWYQQHPGKAPKLMIYEGSKRPSGVSNRFSGSKSGNTASLTISGLQAEDEADYYCSSYTTRSTRVFGGGTKLTVLGAAATREQKLISEEDLKIEVMYPPPYLDNEKSNGTIIHVKGKHLCPSPLFPGPSKPFWVLVVVGGVLACYSLLVTVAFIIFWVRSKRSRLLHSDYMNMTPRRPGPTRKHYQPYAPPRDFAAYRSRVKFSRSADAPAYQQGQNQLYNELNLGRREEYDVLDKRRGRDPEMGGKPRRKNPQEGLYNELQKDKMAEAYSEIGMKGERRRGKGHDGLYQGLSTATKDTYDALHMQALPPRSSGSGEGRGSLLTCGDVEENPG
notes: as for B1
[1]
  binding result: no binding

B4: CD8SP-161-(vL-vH)-Myc-CD28z-T2A-PAC(021715-Z07) (scFv)
chain: DDIQMTQSSSSFSVSLGDRVTITCMASEDIYIRLAWYQQKPGNAPRLLISAATSLETGVPSRFSGSGSGKDYTLSITSLQTEDVGTYYCQQYWSSPWTFGGGTKLEINGGGGSGGGGSGGGGSDVQLQESGPGLVKPSQSLSLTCTVTGYSITSDYTWNWIRQFPGNKLEWMGYITYSGSTSYNPSLKSRNSITRDTSKNQFFLQLNSVTTEDTATYYCARLGRRYTMDYWGQGTSVTVSSTREQKLISEEDLKIEVMYPPPYLDNEKSNGTIIHVKGKHLCPSPLFPGPSKPFWVLVVVGGVLACYSLLVTVAFIIFWVRSKRSRLLHSDYMNMTPRRPGPTRKHYQPYAPPRDFAAYRSRVKFSRSADAPAYQQGQNQLYNELNLGRREEYDVLDKRRGRDPEMGGKPRRKNPQEGLYNELQKDKMAEAYSEIGMKGERRRGKGHDGLYQGLSTATKDTYDALHMQALPPRSSGSGEGRGSLLTCGDVEENPG
notes: as for B1
[1]
  binding result: no binding

B5: CD8SP-KSHV-4C3-(vL-vH)-Myc-BBz-T2A-PAC(042315-N01) (scFv)
chain: DIVMTQSPSSLTMSVGQKVTMSCKSSHSLLNSRNQKNYLAWFQQKPGQSPKLLVYFASTRESGVPDRFIGSGSGTDFTLTISNVQAEDLADYFCQQHYTTLPTFGGGTKLEIKGGGGSGGGGSGGGGSQIQLVQSGPDLKKPGETVKISCKASGYTFTNTGMNWVKQAPGKGLKWMGWINTYTGEPTYADDFKGRFTFSLETSASTAYLQINNLKNEDTATYFCTRWGYGSSLYYAMDYWGQGTSVTVSSTREQKLISEEDLAKPTTTPAPRPPTPAPTIASQPLSLRPEACRPAAGGAVHTRGLDFACDIYIWAPLAGTCGVLLLSLVITLYCKRGRKKLLYIFKQPFMRPVQTTQEEDGCSCRFPEEEEGGCELRVKFSRSADAPAYQQGQNQLYNELNLGRREEYDVLDKRRGRDPEMGGKPRRKNPQEGLYNELQKDKMAEAYSEIGMKGERRRGKGHDGLYQGLSTATKDTYDALHMQALPPRSSGSGEGRGSLLTCGDVEENPG
notes: also called control CAR 4C3
[3]
  binding result: no binding

B6: CD8SP-161-(vL-vH)-GGSG-NLuc-AcV5 (scFv)
scFv: DDIQMTQSSSSFSVSLGDRVTITCMASEDIYIRLAWYQQKPGNAPRLLISAATSLETGVPSRFSGSGSGKDYTLSITSLQTEDVGTYYCQQYWSSPWTFGGGTKLEINGGGGSGGGGSGGGGSDVQLQESGPGLVKPSQSLSLTCTVTGYSITSDYTWNWIRQFPGNKLEWMGYITYSGSTSYNPSLKSRNSITRDTSKNQFFLQLNSVTTEDTATYYCARLGRRYTMDYWGQGTSVTVSSTRGGSGVFTLEDFVGDWRQTAGYNLDQVLEQGGVSSLFQNLGVSVTPIQRIVLSGENGLKIDIHVIIPYEGLSGDQMGQIEKIFKVVYPVDDHHFKVILHYGTLVIDGVTPNMIDYFGRPYEGIAVFDGKKITVTGTLWNGNKIIDERLINPDGSLLFRVTINGVTGWRLCERILASWKDASGWS
notes: the entry includes the CD8 signal peptide
[4]
  binding result: binds

B7: CD8SP-175-(vL-vH)-Myc-CD28z-T2A-PAC(031615-Q04) (scFv)
chain: DQIVLTQSPAIMSASPGEKVTISCSASSSVSYMYWYQQKPGSSPKPWIYRTSNLASGVPARFSGSGSGTSYSLTISNMEAEDAAAYYCQQYHSYPTTFGGGTKLEVKGGGGSGGGGSGGGGSEVQLVESGGGLVQPKGSLKLSCAASGFSFNTYAMNWVRQAPGKGLEWIAHIRSKSNNFATYYADSVKDRFSISRDASENILFLQMNNLKTEDTAMYYCVRQGGDFPMDYWGQGTSVTVSSTREQKLISEEDLKIEVMYPPPYLDNEKSNGTIIHVKGKHLCPSPLFPGPSKPFWVLVVVGGVLACYSLLVTVAFIIFWVRSKRSRLLHSDYMNMTPRRPGPTRKHYQPYAPPRDFAAYRSRVKFSRSADAPAYQQGQNQLYNELNLGRREEYDVLDKRRGRDPEMGGKPRRKNPQEGLYNELQKDKMAEAYSEIGMKGERRRGKGHDGLYQGLSTATKDTYDALHMQALPPRSSGSGEGRGSLLTCGDVEENPG
notes: as for B1
[1]
  binding result: no binding

From US20240166755A1 (UNIVERSITY OF SOUTHERN CALIFORNIA, published 2024)
